In patent US10624968B2, “Compounds for treating cancer” (Bicycle Therapeutics Limited, priority 2017, dated 2020):
Like-named read-outs stand apart in the source and are kept apart here. Starred links: 1 amine or outer side, 2 acyl side, 3 side chain; linkers in the order of their positions; H or OH if unused. Positions of bridges follow the written chain, without caps; N, C: chain ends. Non-standard residues stand in square brackets, D forms with d. Residues, ends and D or L forms follow the SMILES beside them. Chains are numbered I, II in the order given. ξ: configuration not given here. *: point of attachment. Dolaproine = CO[C@@H]([C@@H]1CCCN1)[C@@H](C)C(=O)O; Dil = CC[C@H](C)[C@H](NC)[C@@H](CC(=O)O)OC; TBMB = c1c(C[*:1])cc(C[*:3])cc1C[*:2]; X2 = O=C(CCCC(=O)[*:2])NCCC(=O)[*:1]; PABC = O=C(OCc1ccc(N[*:1])cc1)[*:2]; X1 = C[C@@H](N*)[C@@H](O)c1ccccc1; ξ1Nal = NC(Cc1cccc2ccccc12)C(=O)O; Cit = NC(=O)NCCC[C@H](N)C(=O)O; NMeV = CN[C@H](C(=O)O)C(C)C; ξY = NC(Cc1ccc(O)cc1)C(=O)O; ξTle = CC(C)(C)C(N)C(=O)O; ξF = NC(Cc1ccccc1)C(=O)O; ξE = NC(CCC(=O)O)C(=O)O; ξD = NC(CC(=O)O)C(=O)O; ξN = NC(=O)CC(N)C(=O)O; ξC = NC(CS)C(=O)O; ξA = CC(N)C(=O)O; Sar = CNCC(=O)O

What was measured:
11 tumor cell lines = test: 11 cancer cell line panel cytotoxicity, statements on the whole panel; conditions: all tested cell lines; 72 hours
Description: (§1) Details of the initial cell plating procedure are described in Table 3.
(§2) Data Details for Tables 5 and 6. Inhibition %=(Max−Sample value)/(Max−Min)*100.
(§3) The IC50 curves were generated by 4 Parameter Logistic Model—Sigmoidal Dose-Response Model as follows: Y=Bottom+(Top−Bottom)/(1+10^((log EC50-X)*HillSlope)).

[1] = Plasma stability (LC-MS/MS assay), mouse plasma, with and without AEBSF; type: in vitro ADME
Description: I-1a plasma stability studies were conducted in human and mouse plasma.
In vitro plasma stability assay measures the extent of degradation of compounds in plasma.
Peptides or BDCs are incubated at 37° C. in plasma (mouse or human) at low micromolar concentrations for several hours. The stability is quantitatively measured by LC-MS/MS.
Add 8 μL of the 160 μM DMSO stock of peptide or BDC and add 8 μL of 160 μM DMSO stock of 06-34-18-N182 as internal standard to 304 μL of plasma (152 μL*2) for a final concentration of 4 μM (5% DMSO).
Incubate at 37° C. in 100% humidity.
Pipette out 40 μL for 7 timepoints: time 0, 1 h, 2 h, 4 h, 6 h, 8 h, 24 h into a 1.5 mL Eppendorf. Store at −80° C. immediately. (total volume of samples?×40=280 μL).
Add to the sample the extraction solvent. The extraction solvent contains 1 part of water, 3 parts of methanol, and 3 parts of acetonitrile.
To the time course samples add 120 μL of extraction solvent, mix thoroughly with pipette and gently vortex.
Centrifuge for 40 minutes at 14000 rpm at 4° C.
Transfer the supernatant to the LC-MS vials and run the experiment immediately afterwards.
It is recommend to follow one transition for the peptide of BDCs to study, and one transition for the internal standard 06-34-18-N182 at the same time. The most relevant Selected Ion Reaction (SIR) and Multiple Reaction Monitoring (MRM) transitions were determined for each peptide or BDC.
The analysis of the data has been performed using “QuanLynks” and “Sigmaplot” software.
For the studies depicted in FIGS. 1-3, the following conditions were used.
Column: Waters ACQUITY CSH Phenyl-Hexyl 1.7 μm 2.1×50 mm
Mobile Phase: […] ammonium bicarbonate in water; B=5 mM ammonium bicarbonate 10% water in acetonitrile.
Gradient: 5 to 60% B in 4 minutes at 0.6 mL/min flow.
To test the hypothesis that plasma instability in mouse was due to Ces1c, I-1a was incubated in mouse plasma both in the presence and absence of AEBSF,
Additionally, formation of the MMAE metabolite in mouse plasma (release of the toxin) was monitored both in the presence and absence of AEBSF.

HT29 = test: cells; conditions: read-out: Re IC50; HT29; 72 hours
Description: as §1, §2, §3

HCC1806 = test: cells; conditions: read-out: Re IC50; HCC1806; 72 hours
Description: as §1, §2, §3

MOLP-8 = test: cells; conditions: read-out: Re IC50; MOLP-8; 72 hours
Description: as §1, §2, §3

MDA-MB-231 = test: cells; conditions: read-out: Re IC50; MDA-MB-231; 72 hours
Description: as §1, §2, §3

PC-3 = test: cells; conditions: read-out: Re IC50; PC-3; 72 hours
Description: as §1, §2, §3

HT1080 = test: cells; conditions: read-out: Re IC50; HT1080; 72 hours
Description: as §1, §2, §3

HCT15 = test: cells; conditions: read-out: Re IC50; HCT15; 72 hours
Description: as §1, §2, §3

NCI-H292 = test: cells; conditions: read-out: Re IC50; NCI-H292; 72 hours
Description: as §1, §2, §3

EBC-1 = test: cells; conditions: read-out: Re IC50; EBC-1; 72 hours
Description: as §1, §2, §3

SNU-16 = test: cells; conditions: read-out: Re IC50; SNU-16; 72 hours
Description: as §1, §2, §3

NCI-H1975 = test: cells; conditions: read-out: Re IC50; NCI-H1975; 72 hours
Description: as §1, §2, §3

[2] = Body weight of mice bearing EBC-1 xenograft (indirect measure of toxicity); type: in vivo, mouse
Description: (§4) All the procedures related to animal handling, care and the treatment in the study were performed according to the guidelines of the Association for Assessment and Accreditation of Laboratory Animal Care (AAALAC). At the time of routine monitoring, the animals were daily checked for any effects of tumor growth and treatments on normal behavior such as mobility, food and water consumption (by looking only), body weight gain/loss (body weights were measured every day), eye/hair matting and any other abnormal effect as stated in the protocol. Death and observed clinical signs were recorded on the basis of the numbers of animals within each subset.
Animal body weight was monitored regularly as an indirect measure of toxicity.

[3] = Tolerability (body weight) in LU-01-0486 NSCLC PDX model; type: in vivo, mouse
Description: as §4, with “following” for “according to”, “guidance” for “guidelines”, “twice weekly),” for “every day),”

## CC[C@H](C)[C@@H]([C@@H](CC(=O)N1CCC[C@H]1[C@H](OC)[C@@H](C)C(=O)N[C@H](C)[C@@H](O)c1ccccc1)OC)N(C)C(=O)[C@@H](NC(=O)[C@H](C(C)C)N(C)C(=O)OCc1ccc(NC(=O)[C@H](CCCNC(N)=O)NC(=O)[C@@H](NC(=O)CCCC(=O)NCCC(=O)N(C)CC(=O)N(C)CC(=O)N(C)CC(=O)N(C)CC(=O)N(C)CC(=O)N(C)CC(=O)N(C)CC(=O)N(C)CC(=O)N(C)CC(=O)N(C)CC(=O)NC(C)C(=O)NC2CSCc3cc4cc(c3)CSCC(NC(=O)C(C)NC(=O)C(Cc3cccc5ccccc35)NC(=O)C(CCC(=O)O)NC(=O)C(CC(N)=O)NC(=O)C(C)NC2=O)C(=O)NC(CCC(=O)O)C(=O)NC(CC(=O)O)C(=O)NC(Cc2ccccc2)C(=O)NC(Cc2ccc(O)cc2)C(=O)NC(CC(=O)O)C(=O)NC(C(C)(C)C)C(=O)NC(C(N)=O)CSC4)C(C)C)cc1)C(C)C (some centres unmarked) [Compound I-1a] (I: [Sar][Sar][Sar][Sar][Sar][Sar][Sar][Sar][Sar][Sar][ξA][ξC][ξA][ξN][ξE][ξ1Nal][ξA][ξC][ξE][ξD][ξF][ξY][ξD][ξTle][ξC]-NH2 / II: V[Cit][PABC][NMeV]V[Dil][Dolaproine]-X1; linker I:12-I:18-I:25 via TBMB; linker I:N-II:N via X2)
11 tumor cell lines
  cytotoxic activity over the cell line panel (in words): works well on all cell lines except HCT-15
[1]; mouse plasma without AEBSF, pH 7.4 at 37° C.
  half-life at 4 μM: 24 h
[1]; mouse plasma without AEBSF, pH 7.4 at 37° C., read-out: % remained after 24 hours incubation
  remaining at 24 h, 4 μM: 50%
[1]; mouse plasma, in the absence of AEBSF
  formation of the MMAE metabolite (release of the toxin): I-1a degradation tracks with the appearance of free MMAE
[1]; mouse plasma, in the presence of AEBSF
  formation of the MMAE metabolite (release of the toxin): lack of formation of free MMAE
[1]; mouse plasma, 1 μM, pH 7.4 at 37° C.
  half-life at 1 μM: 6.4 h
[1]; mouse plasma, 1 μM, pH 7.4 at 37° C., read-out: % remained after 24 hours incubation
  remaining at 24 h, 1 μM: 57%
[1]; with AEBSF (concentration not stated), mouse plasma +AEBSF, pH 7.4 at 37° C.
  half-life at 4 μM: > 24 h
[1]; with AEBSF (concentration not stated), mouse plasma +AEBSF, pH 7.4 at 37° C., read-out: % remained after 24 hours incubation
  remaining at 24 h, 4 μM: 100%
HT29
  IC50: 219 nM
HCC1806
  IC50: 15.2 nM
MOLP-8
  IC50: 197 nM
MDA-MB-231
  IC50: 211 nM
PC-3
  IC50: 102 nM
HT1080
  IC50: 21.4 nM
HCT15
  IC50: > 5000 nM
NCI-H292
  IC50: 56.2 nM
EBC-1
  IC50: 35.7 nM
SNU-16
  IC50: 63.3 nM
NCI-H1975
  IC50: 24.2 nM
[2]; 1 mg/kg i.v. tiw x2 w, day 0
  Body Weight: 23.4 g
[2]; 1 mg/kg i.v. tiw x2 w, day 2
  Body Weight: 23.3 g
[2]; 1 mg/kg i.v. tiw x2 w, day 4
  Body Weight: 23.6 g
[2]; 1 mg/kg i.v. tiw x2 w, day 7
  Body Weight: 23.8 g
[2]; 1 mg/kg i.v. tiw x2 w, day 9
  Body Weight: 24.0 g
[2]; 1 mg/kg i.v. tiw x2 w, day 11
  Body Weight: 24.0 g
[2]; 1 mg/kg i.v. tiw x2 w, day 14
  Body Weight: 23.8 g
[2]; 3 mg/kg i.v. tiw x2 w, day 0
  Body Weight: 21.9 g
[2]; 3 mg/kg i.v. tiw x2 w, day 2
  Body Weight: 21.4 g
[2]; 3 mg/kg i.v. tiw x2 w, day 4
  Body Weight: 21.7 g
[2]; 3 mg/kg i.v. tiw x2 w, day 7
  Body Weight: 22.3 g
[2]; 3 mg/kg i.v. tiw x2 w, day 9
  Body Weight: 22.4 g
[2]; 3 mg/kg i.v. tiw x2 w, day 11
  Body Weight: 22.0 g
[2]; 3 mg/kg i.v. tiw x2 w, day 14
  Body Weight: 22.0 g
[2]; 10 mg/kg i.v. tiw x2 w, day 0
  Body Weight: 23.1 g
[2]; 10 mg/kg i.v. tiw x2 w, day 2
  Body Weight: 21.8 g
[2]; 10 mg/kg i.v. tiw x2 w, day 4
  Body Weight: 20.8 g
[2]; 10 mg/kg i.v. tiw x2 w, day 7
  Body Weight: 19.3 g
[2]; 10 mg/kg i.v. tiw x2 w, day 9
  Body Weight: 22.0 g
[2]; 10 mg/kg i.v. tiw x2 w, day 11
  Body Weight: 20.6 g
[2]; 10 mg/kg i.v. tiw x2 w, day 14
  Body Weight: 22.4 g
[2]; 10 mg/kg, 3× weekly schedule for two weeks
  effect on body weight (in words): brief body weight loss which is reversible upon discontinuation of treatment
[3]; 1 mg/kg
  effect on body weight (in words): no significant effect on body weight
[3]; 3 mg/kg
  effect on body weight (in words): without significant effect on body weight
